Patent publication US20040091908A1

Biological target: potassium channel Kv4.3 T1 domain (tetramerization domain, residues 29-143, with N-terminal Met, C-terminal Leu-Glu and six His-tag)
Test: X-ray crystal structure of the T1 tetramer

solvent-accessible surface area buried by each subunit at its two subunit interfaces: 960 Å^2
Substance: potassium channel Kv4.3 T1 domain (tetramerization domain, residues 29-143, with N-terminal Met, C-terminal Leu-Glu and six His-tag)
